Assay results from patent US20180016354A1 (Merck KGaA, published 2018).

Legend:
[1] = biological target: T1, EGFR (on EGFR-expressing A431 cells) (UniProt P00533 25-1210, limits assumed); assay: cell-based or functional assay
[2] = biological target: CD3 (on activated primary T cells) (UniProt P07766 23-207); assay: cell-based or functional assay
[3] = biological target: T1, EGFR (on EGFR-expressing A431 cells); assay: flow cytometry on A431 cells
[4] = biological target: T2, CD16a receptor (FcγIIIa) (UniProt P08637 17-254, limits assumed); assay: cell-based or functional assay
T2 sequence (P08637 17-254 limits assumed): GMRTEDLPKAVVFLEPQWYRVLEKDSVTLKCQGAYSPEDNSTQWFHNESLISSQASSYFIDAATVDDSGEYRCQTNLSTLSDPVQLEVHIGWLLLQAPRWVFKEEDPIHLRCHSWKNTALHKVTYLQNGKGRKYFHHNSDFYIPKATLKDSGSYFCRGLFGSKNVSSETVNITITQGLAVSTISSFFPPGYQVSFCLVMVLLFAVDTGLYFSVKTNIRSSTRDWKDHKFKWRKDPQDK

[5] = biological target: T2, CD16a receptor (FcγIIIa); assay: CD16a HTRF cellular binding assay, competition with labeled human IgG
Method: (§1) FIG. 14: Binding of antibodies to CD16a receptor. Binding was measured using CD16a HTRF cellular binding assay (CisBio). Measurement was performed in duplicates.

[6] = biological target: T2, CD16a receptor (FcγIIIa); assay: CD16a HTRF cellular binding assay (CisBio), competition with labeled human IgG
Method: as §1

B1: domain-exchanged heterodimeric bispecific antibody 1, BsAb1 (anti-CD3× anti-EGFR CH3-KiH) (bispecific antibody, human IgG1, kappa)
heavy 1: QVQLVQSGAEVKKPGASVKVSCKASGYTFTSHWMHWVRQAPGQGLEWIGEFNPSNGRTNYNEKFKSKATMTVDTSTNTAYMELSSLRSEDTAVYYCASRDYDYDGRYFDYWGQGTLVTVSSASTKGEPQVYTLPPSRDELTKNQVSLYCLVKGFYPSDIAVEWESNGQPENNYKTTPPVLDSDGSFFLYSKLTVDKSRWQQGNVFSCSVMHEALHNHYTQKSLSLSKSCDKTHTCPPCPAPELLGGPSVFLFPPKPKDTLMISRTPEVTCVVVDVSHEDPEVKFNWYVDGVEVHNAKTKPREEQYNSTYRVVSVLTVLHQDWLNGKEYKCKVSNKALPAPIEKTISKAKGQPFRPEVHLLPPSREEMTKNQVSLTCLARGFYPKDIAVEWESNGQPENNYKTTPSRQEPSQGTTTFAVTSKLTVDKSRWQQGNVFSCSVMHEALHNHYTQKTISLSPGK
heavy 2: QVQLVQSGGGVVQPGRSLRLSCKASGYTFTRYTMHWVRQAPGKGLEWIGYINPSRGYTNYNQKVKDRFTISRDNSKNTAFLQMDSLRPEDTGVYFCARYYDDHYCLDYWGQGTPVTVSSASTKGPSVFPLAPSSKSTSGGTAALGCLVKDYFPEPVTVSWNSGALTSGVHTFPAVLQSSGLYSLSSVVTVPSSSLGTQTYICNVNHKPSNTKVDKKVEPKSCDKTHTCPPCPAPELLGGPSVFLFPPKPKDTLMISRTPEVTCVVVDVSHEDPEVKFNWYVDGVEVHNAKTKPREEQYNSTYRVVSVLTVLHQDWLNGKEYKCKVSNKALPAPIEKTISKAKGQPREPQVYTLPPPSEELALNELVTLTCLVKGFYPSDIAVEWLQGSQELPREKYLTWAPVLDSDGSFFLYSILRVAAEDWKKGDTFSCSVMHEALHNHYTQKSLDRSPGK
light 1: DIQMTQSPSSLSASVGDRVTITCSASSSVTYMYWYQQKPGKAPKLLIYDTSNLASGVPSRFSGSGSGTDYTFTISSLQPEDIATYYCQQWSSHIFTFGQGTKVEIKRTVAEPQVYTLPPSRDELTKNQVSLTCLVKGFYPSDIAVEWESNGQPENNYKTTPPVLDSDGSFFLTSKLTVDKSRWQQGNVFSCSVMHEALHNHYTQKSLSLSGEC
light 2: DIQMTQSPSSLSASVGDRVTITCSASSSVSYMNWYQQTPGKAPKRWIYDTSKLASGVPSRFSGSGSGTDYTFTISSLQPEDIATYYCQQWSSNPFTFGQGTKLQITRTVAAPSVFIFPPSDEQLKSGTASVVCLLNNFYPREAKVQWKVDNALQSGNSQESVTEQDSKDSTYSLSSTLTLSKADYEKHKVYACEVTHQGLSSPVTKSFNRGEC
notes: hu425 (Matuzumab) Fv in the CH3 domain-exchanged Fab arm, OKT3 Fv in the native Fab arm; SEED AG/GA Fc; also called domain-exchanged heterodimeric antibody 1; domain-exchanged bispecific antibody 1
EC50 of redirected lysis of A431 cells by activated T cells (LDH release) [1]: 0.1 to 0.3 nM | EC50 of redirected lysis of A431 cells by activated T cells (LDH release) [2]: 0.1 to 0.3 nM | EC50 [3]: ~7 nM

B2: domain-exchanged bispecific antibody 2, BsAb2 (anti-CD16× anti-EGFR CH3-KiH) (bispecific antibody, human IgG1, kappa)
heavy 1: QVQLVQSGAEVKKPGASVKVSCKASGYTFTSHWMHWVRQAPGQGLEWIGEFNPSNGRTNYNEKFKSKATMTVDTSTNTAYMELSSLRSEDTAVYYCASRDYDYDGRYFDYWGQGTLVTVSSASTKGEPQVYTLPPSRDELTKNQVSLYCLVKGFYPSDIAVEWESNGQPENNYKTTPPVLDSDGSFFLYSKLTVDKSRWQQGNVFSCSVMHEALHNHYTQKSLSLSKSCDKTHTCPPCPAPELLGGPSVFLFPPKPKDTLMISRTPEVTCVVVDVSHEDPEVKFNWYVDGVEVHNAKTKPREEQYNSTYRVVSVLTVLHQDWLNGKEYKCKVSNKALPAPIEKTISKAKGQPFRPEVHLLPPSREEMTKNQVSLTCLARGFYPKDIAVEWESNGQPENNYKTTPSRQEPSQGTTTFAVTSKLTVDKSRWQQGNVFSCSVMHEALHNHYTQKTISLSPGK
heavy 2: not shown
light 1: DIQMTQSPSSLSASVGDRVTITCSASSSVTYMYWYQQKPGKAPKLLIYDTSNLASGVPSRFSGSGSGTDYTFTISSLQPEDIATYYCQQWSSHIFTFGQGTKVEIKRTVAEPQVYTLPPSRDELTKNQVSLTCLVKGFYPSDIAVEWESNGQPENNYKTTPPVLDSDGSFFLTSKLTVDKSRWQQGNVFSCSVMHEALHNHYTQKSLSLSGEC
light 2: not shown
notes: hu425 Fv in the domain-exchanged Fab arm, murine 3G8 (anti-CD16) Fv in the native Fab arm; also called effector positive BsAb2 variant
EC50 of lysis of A431 cells by redirected NK cells (LDH release) [4]: 0.01 nM | lysis of A431 cells by redirected NK cells (LDH release) [4]: ≤ 50% | EC50 of lysis of A431 cells by redirected NK cells (LDH release) [1]: 0.01 nM | lysis of A431 cells by redirected NK cells (LDH release) [1]: ≤ 50% | IC50 [5]: ~0.3 nM

B3: One-armed Effector Negative (EN) domain-exchanged anti-EGFR antibody (antibody)
heavy: QVQLVQSGAEVKKPGASVKVSCKASGYTFTSHWMHWVRQAPGQGLEWIGEFNPSNGRTNYNEKFKSKATMTVDTSTNTAYMELSSLRSEDTAVYYCASRDYDYDGRYFDYWGQGTLVTVSSASTKGEPQVYTLPPSRDELTKNQVSLYCLVKGFYPSDIAVEWESNGQPENNYKTTPPVLDSDGSFFLYSKLTVDKSRWQQGNVFSCSVMHEALHNHYTQKSLSLSKSCDKTHTCPPCPAPPVAGPSVFLFPPKPKDTLMISRTPEVTCVVVDVSHEDPEVQFNWYVDGVEVHNAKTKPREEQAQSTFRVVSVLTVVHQDWLNGKEYKCKVSNKGLPAPIEKTISKTKGQPFRPEVHLLPPSREEMTKNQVSLTCLARGFYPKDIAVEWESNGQPENNYKTTPSRQEPSQGTTTFAVTSKLTVDKSRWQQGNVFSCSVMHEALHNHYTQKTISLSPGK
chain: EPKSSDKTHTCPPCPAPPVAGPSVFLFPPKPKDTLMISRTPEVTCVVVDVSHEDPEVQFNWYVDGVEVHNAKTKPREEQAQSTFRVVSVLTVVHQDWLNGKEYKCKVSNKGLPAPIEKTISKTKGQPREPQVYTLPPPSEELALNELVTLTCLVKGFYPSDIAVEWLQGSQELPREKYLTWAPVLDSDGSFFLYSILRVAAEDWKKGDTFSCSVMHEALHNHYTQKSLDRSPGK
light: DIQMTQSPSSLSASVGDRVTITCSASSSVTYMYWYQQKPGKAPKLLIYDTSNLASGVPSRFSGSGSGTDYTFTISSLQPEDIATYYCQQWSSHIFTFGQGTKVEIKRTVAEPQVYTLPPSRDELTKNQVSLTCLVKGFYPSDIAVEWESNGQPENNYKTTPPVLDSDGSFFLTSKLTVDKSRWQQGNVFSCSVMHEALHNHYTQKSLSLSGEC
notes: One Fab arm only; effector negative Fc (modified IgG2 CH2 F296A, N297Q); also called one-armed domain-exchanged EN anti-EGFR antibody; one-armed effector negative anti-EGFR antibody
binding result [6]: no binding
